In patent US20250250355A1 (BIOSION, published 2025) one finds EC50 and IC50 data, which are given here for 1 molecule.

A word on the EC50: it is the concentration at which the effect is half-maximal. One may read the IC50 as the concentration that inhibits the measured activity by half. Lower therefore signals greater potency.

For experiment [1], the target named is T1, full length human SIRPα on cell membranes (HEK293-SIRPα cells; 293F-SIRPα cells) (human, UniProt P78324 31-504).
T1 construct: whole, on cells; also called cell surface human SIRPα; cell surface SIRPα
T1 sequence (P78324 31-504): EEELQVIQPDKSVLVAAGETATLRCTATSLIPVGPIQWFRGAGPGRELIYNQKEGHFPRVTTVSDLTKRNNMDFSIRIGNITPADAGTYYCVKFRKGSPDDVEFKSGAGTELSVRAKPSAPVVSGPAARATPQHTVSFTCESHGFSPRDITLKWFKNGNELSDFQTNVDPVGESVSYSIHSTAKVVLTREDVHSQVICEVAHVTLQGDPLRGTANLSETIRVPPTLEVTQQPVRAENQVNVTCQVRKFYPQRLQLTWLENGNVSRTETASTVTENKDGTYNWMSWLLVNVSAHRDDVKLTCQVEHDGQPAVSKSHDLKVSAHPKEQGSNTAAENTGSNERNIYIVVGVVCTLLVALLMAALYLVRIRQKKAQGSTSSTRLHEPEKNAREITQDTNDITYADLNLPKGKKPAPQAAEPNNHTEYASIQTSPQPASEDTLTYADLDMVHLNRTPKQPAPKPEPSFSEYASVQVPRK
The experiment is described as follows: cell based binding FACS on HEK293-SIRPα cells, MFI; curve not visible in the scan.
Description: (§1) The cells were harvested from the cell culture flasks, washed twice and suspended in PBS containing 2% v/v Fetal Bovine Serum (FACS buffer). Then, 1×10⁵ cells per well in 96 well-plates were incubated with 100 μl serially diluted anti-SIRPα antibodies of the disclosure or the controls (starting from 10 μg/mL, 5-fold serial dilution) in FACS buffer for 50 min on ice. […] Following an incubation of 50 min at 4° C. in dark, cells were washed three times and re-suspended in FACS buffer. Fluorescence was measured using a Becton Dickinson FACS Canto II-HTS equipment, and the MFI (mean fluorescence intensity) was plotted against the antibody concentration. Data was analyzed using Graphpad Prism and EC₅₀ values were reported.

Experiment [2] has as its target T2, full length human SIRPβ on cell membranes (HEK293-SIRPβ cells; 293F cells expressing human SIRPβ) (human, UniProt O00241 30-398).
T2 construct: whole, on cells; also called cell surface human SIRPβ
Description: cell based binding FACS on HEK293-SIRPβ cells, MFI; curve not visible in the scan.
Description: as §1

Experiment [3] addresses T3, cynomolgus SIRPα-his protein (cynomolgus).
T3 construct: also called Cyno SIRPα-his; monkey SIRPα
T3 chain: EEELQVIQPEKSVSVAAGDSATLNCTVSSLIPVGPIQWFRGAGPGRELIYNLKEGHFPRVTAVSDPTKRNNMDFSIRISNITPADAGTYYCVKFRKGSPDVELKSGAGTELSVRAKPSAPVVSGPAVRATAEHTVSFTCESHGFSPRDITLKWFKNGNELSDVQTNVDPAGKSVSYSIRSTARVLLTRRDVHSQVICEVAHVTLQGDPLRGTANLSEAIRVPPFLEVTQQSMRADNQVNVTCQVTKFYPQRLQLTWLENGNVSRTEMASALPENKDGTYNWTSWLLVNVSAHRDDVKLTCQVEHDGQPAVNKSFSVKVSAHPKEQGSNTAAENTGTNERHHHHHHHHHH
Description: indirect ELISA on coated cynomolgus SIRPα-his, OD(450-630); curve not visible in the scan. (In general: In an ELISA, binding on a coated surface is turned into a signal by an enzyme label.)
Description: (§2) The plates were washed once with wash buffer (PBS+0.05% Tween-20, PBST) and then blocked with 200 μl/well blocking buffer (5% w/v non-fatty milk in PBST) overnight at 4° C. […] After a final wash, the plates were incubated with 100 μl TMB (Innoreagents) at room temperature. The reaction was stopped 3-10 min later with 50 μl 1 M H2SO₄, and the absorbance of each well was read on a microplate reader using the dual wavelength mode with 450 nm for TMB and 630 nm as the reference wavelength. The OD (450-630) values were plotted against the antibody concentration. Data was analyzed using Graphpad Prism and EC₅₀ values were reported.

Experiment [4] addresses human SIRPα-isoform 2-his protein (human). Description: indirect ELISA on coated human SIRPα-isoform 2-his, OD(450-630); curve not visible in the scan.
Description: as §2
Experiment [5] addresses T4, full length human SIRPγ endogenously expressed on Jurkat cells (human, UniProt Q9P1W8 29-387).
T4 construct: whole, on cells; also called human SIRPγ expressed on Jurkat cells
The experiment is described as follows: cell based binding FACS on Jurkat cells (endogenous human SIRPγ), MFI; curve not separable in the scan; paragraph 186 says no binding.
Description: as §1

Experiment [6] deals with T1, full length human SIRPα on cell …. The experiment is described as follows: cell based blocking FACS on 293F-SIRPα cells; blocked ligand: biotin-labeled human CD47-Fc, MFI; curve only in faint traces.
Description: Then, 1×10⁵ cells per well in 96 well-plates were incubated with 100 μl serially diluted anti-SIRPα antibodies of the disclosure or the controls (starting from 10 μg/mL, 5-fold serial dilution in FACS buffer) for 50 min at 4° C. […] The plates were washed twice with FACS buffer, and then added and incubated for 40 min at 4° C. in dark with 100 μl R-Phycoerythrin Streptavidin (1:500 dilution in FACS buffer, Jackson Immunoresearch, Cat #016-110-084). Cells were washed twice and re-suspended in FACS buffer. Fluorescence was measured using a Becton Dickinson FACS Canto II-HTS equipment, and the MFI (mean fluorescence intensity) was plotted against the antibody concentration. Data was analyzed using Graphpad Prism and IC₅₀ values were reported.
A further experiment deals with human SIRPα-his protein (human, UniProt P78324 31-370). Description: competitive ELISA on coated human SIRPα-his; blocked ligand: biotin-labeled human CD47-his, OD(450-630); curve not visible in the scan.
human SIRPα-his protein, sequence (P78324 other isoform, or with tags, fused parts or gaps limits assumed): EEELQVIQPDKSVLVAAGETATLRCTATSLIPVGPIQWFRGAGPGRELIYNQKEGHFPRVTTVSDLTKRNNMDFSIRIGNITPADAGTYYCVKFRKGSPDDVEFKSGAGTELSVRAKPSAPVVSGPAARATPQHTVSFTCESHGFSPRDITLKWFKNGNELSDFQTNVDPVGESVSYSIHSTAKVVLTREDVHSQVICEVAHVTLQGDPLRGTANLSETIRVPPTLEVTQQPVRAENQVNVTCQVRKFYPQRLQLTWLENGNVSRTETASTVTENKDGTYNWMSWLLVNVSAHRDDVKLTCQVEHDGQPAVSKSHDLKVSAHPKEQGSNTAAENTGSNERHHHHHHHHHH
For experiment [7], the target named is T5, recombinant human SIRPα-Fc protein (human, biotin-labeled (sites not given)).
T5 construct: also called biotin-labeled human SIRPα-Fc protein
T5 sequence (chain, as listed by the source limits assumed): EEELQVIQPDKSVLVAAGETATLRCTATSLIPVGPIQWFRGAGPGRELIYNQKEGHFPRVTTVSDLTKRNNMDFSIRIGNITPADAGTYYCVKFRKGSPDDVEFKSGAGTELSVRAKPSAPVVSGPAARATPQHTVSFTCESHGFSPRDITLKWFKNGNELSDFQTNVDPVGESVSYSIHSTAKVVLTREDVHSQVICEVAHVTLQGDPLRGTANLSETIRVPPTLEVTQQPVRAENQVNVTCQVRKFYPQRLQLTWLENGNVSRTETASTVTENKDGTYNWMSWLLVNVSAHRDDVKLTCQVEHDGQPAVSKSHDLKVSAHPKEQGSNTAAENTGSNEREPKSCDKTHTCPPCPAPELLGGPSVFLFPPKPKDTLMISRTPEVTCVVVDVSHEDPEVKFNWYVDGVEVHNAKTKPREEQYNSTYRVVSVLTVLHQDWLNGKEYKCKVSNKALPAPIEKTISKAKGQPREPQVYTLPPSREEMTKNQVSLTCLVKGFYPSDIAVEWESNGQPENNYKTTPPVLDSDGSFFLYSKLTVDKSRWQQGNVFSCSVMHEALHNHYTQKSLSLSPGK
The experiment is described as follows: capture ELISA, antibody captured on anti-mouse IgG F(ab')2, biotin-labeled human SIRPα-Fc in solution, OD(450-630); curve not visible in the scan.

T2 sequence (O00241 30-398): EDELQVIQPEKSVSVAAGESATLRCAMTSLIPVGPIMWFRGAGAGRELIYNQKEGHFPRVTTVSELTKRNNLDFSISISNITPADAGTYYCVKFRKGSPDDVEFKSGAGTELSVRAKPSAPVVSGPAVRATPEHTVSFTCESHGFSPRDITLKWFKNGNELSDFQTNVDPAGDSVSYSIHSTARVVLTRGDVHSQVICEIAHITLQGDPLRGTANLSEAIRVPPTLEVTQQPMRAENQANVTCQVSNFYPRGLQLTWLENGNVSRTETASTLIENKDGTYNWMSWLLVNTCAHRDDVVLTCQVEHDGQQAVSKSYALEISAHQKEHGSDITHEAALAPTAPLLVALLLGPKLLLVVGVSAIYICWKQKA
human SIRPα-isoform 2-his protein (human), sequence (chain, as listed by the source limits assumed): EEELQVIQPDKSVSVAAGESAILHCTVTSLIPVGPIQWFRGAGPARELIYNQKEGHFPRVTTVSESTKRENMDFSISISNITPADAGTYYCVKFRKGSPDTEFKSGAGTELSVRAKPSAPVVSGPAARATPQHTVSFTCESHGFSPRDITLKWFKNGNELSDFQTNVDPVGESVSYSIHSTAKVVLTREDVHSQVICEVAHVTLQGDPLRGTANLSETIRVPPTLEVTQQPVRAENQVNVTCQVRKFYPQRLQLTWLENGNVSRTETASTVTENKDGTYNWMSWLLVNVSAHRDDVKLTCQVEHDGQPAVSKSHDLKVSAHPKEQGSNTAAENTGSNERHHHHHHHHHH
T4 sequence (Q9P1W8 29-387): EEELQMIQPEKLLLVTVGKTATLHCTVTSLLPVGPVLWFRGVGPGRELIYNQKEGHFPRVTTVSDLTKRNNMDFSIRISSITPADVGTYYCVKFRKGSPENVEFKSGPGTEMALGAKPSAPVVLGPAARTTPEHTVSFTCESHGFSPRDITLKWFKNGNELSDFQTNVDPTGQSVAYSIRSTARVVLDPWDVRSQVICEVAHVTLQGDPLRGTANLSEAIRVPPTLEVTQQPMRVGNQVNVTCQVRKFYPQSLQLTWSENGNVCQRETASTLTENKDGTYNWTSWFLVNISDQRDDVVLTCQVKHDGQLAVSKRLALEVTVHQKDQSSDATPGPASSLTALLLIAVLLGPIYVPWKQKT
Description for human SIRPα-his protein: The plates were washed once with wash buffer (PBS+0.05% Tween-20, PBST) and then blocked with 200 μl blocking buffer (5% w/v non-fatty milk in PBST) for 2 h at 37° C. While blocking, the anti-SIRPα antibodies of the disclosure or the controls were diluted with 2.5% non-fatty milk in PBST, starting at 10 μg/ml with a 5-fold serial dilution, and added to the plates, 100 μl per well, and incubated for 40 min at 37° C. […] The plates were washed again using wash buffer and added with TMB, the reaction was stopped using 1 M H2SO₄. The absorbance of each well was read on a microplate reader using the dual wavelength mode with 450 nm for TMB and 630 nm as the reference wavelength, and the OD (450-630) values were plotted against the antibody concentration. Data was analyzed using Graphpad Prism and IC₅₀ values were reported.

B1: E1H10B7C7 (antibody, V domains shown)
VH: QVQLVQSGAEVKKPGASVKVSCKASGYTFTSYAMQWVRQAPGQRLEWMGWIIAGNGDTKYSQNFQDRVTLTRDTSANTAYMDLSGLRSEDTAVYYCARGSGFSGYGYFDKWGQGTLVTVSS
VL: DIQMTQSPSSLSASVGDRVTITCRASHSISSYLNWYQQKPGKVPKLLIYASSSLQSGVPSRFSGNGSGTDFTLIISSLQPEDFATYYCQQSHSIPLTFGGGTKVEIK
B1: the concentration giving a half-maximal response (EC50) was 0.842 nM in experiment [1]; 0.689 nM in experiment [2]; 0.131 nM in experiment [3]; 0.162 nM in experiment [4]; 0.5 nM in experiment [5]; 0.103 nM in experiment [7]. The IC50 in experiment [6] was found to be 0.853 nM; in the experiment with human SIRPα-his protein, 2.68 nM.
